Two substances from patent US20070224615A1 can be followed below.

Experiment [1] concerns the target EGFR-TEV-NIa-Pro cleavage (Leu)-tTA (human) (UniProt P00533). The experiment is described as follows: cell-based or functional assay.
Experiment [2] has as its target CCR5-tTA fusion construct containing the low efficiency cleavage site (UniProt P51681). Put plainly: cell-based or functional assay.
UniProt P51681, sequence (P51681 whole entry, the tested form may be a part): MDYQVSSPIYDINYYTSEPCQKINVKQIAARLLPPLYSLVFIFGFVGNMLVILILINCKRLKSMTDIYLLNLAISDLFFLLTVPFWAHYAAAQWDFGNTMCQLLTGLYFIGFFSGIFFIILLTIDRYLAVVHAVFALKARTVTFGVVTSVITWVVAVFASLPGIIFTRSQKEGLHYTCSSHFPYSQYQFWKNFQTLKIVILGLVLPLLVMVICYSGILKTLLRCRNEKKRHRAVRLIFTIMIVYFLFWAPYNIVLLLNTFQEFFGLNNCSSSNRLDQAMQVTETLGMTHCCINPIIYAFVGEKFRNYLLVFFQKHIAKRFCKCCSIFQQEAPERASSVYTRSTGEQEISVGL

As to “human Transforming Growth Factor-Alpha (from UniProt P01135 40-89) (ligand)”, in experiment [1], the increase of luciferase reporter gene activity at 100 ng/ml ligand, cells co-expressing PLC Gamma1-TEV amounted to 18.3 fold. “Regulated on Activation, Normal T-Cell Expressed and Secreted (RANTES) (from UniProt P13501 24-91) (ligand)”: in experiment [2], the induction of β-galactosidase reporter gene expression over background at 1 µg/ml RANTES, clone 34 cells with stable ARRB2-TEV-NIa protease was 40 fold.
